Tested on: MS2 coat protein
Experiment: apparent KD of MS2 coat protein; designed switch direction (-1 OFF switch, 1 ON switch): 1; higher = weaker reporter binding
In short: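 Designed RNA switches were transcribed on Illumina chips by stalled E. coli RNA polymerase and titrated with SNAP-549-labelled MS2 coat protein from 0.7 or 1.5 nM, doubling to 3 µM. Step length ran from 0.8–1.5 h at the lowest concentration to 10–20 min at the highest. The apparent KD is the median over clusters for each design, from curve-fitted normalised cluster fluorescence.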

[1] = Eterna round: R95, input ligand: FMN 200 uM
[2] = Eterna round: R95, input ligand: microRNA oligo, concentration not stated
[3] = Eterna round: R95, input ligand: none
[4] = input ligand: microRNA oligo, concentration not stated

Row | Sequence | apparent KD of MS2 coat protein [1] | apparent KD of MS2 coat protein [2] | apparent KD of MS2 coat protein [3] | apparent KD of MS2 coat protein (input ligand: FMN 200 uM) | apparent KD of MS2 coat protein [4] | apparent KD of MS2 coat protein (input ligand: none)
1 | UGCAUACAUGAGGAUCACCCAUGUCAACGUAGUCGAGGAUAUGGGCAGCCGUGAGGCGUACCAGAAGGCGAAGAGG [JL-ss1-3.04 ViennaUCT mod] (puzzle: Same State 1) | 28.7 nM | 62.2 nM | 77.9 nM | – | – | –
2 | AUUAUUAAUGCAGGAUAUGAAUAACAUGAGGAUCACCCAUGUGGUGUUGUGAGUAAGGAGAGAGAUCAGAAGGGCAUUUUUUUU [JMF's solution 4] (Eterna round: R96, puzzle: Same State NG 2) | – | – | – | 349 nM | 225 nM | 258 nM
3 | UGUUGUAUUACAGGAUAUCUAUUGUUUUUAAUUAGAGAAGGGUAUUCACAUGAGGAUCACCCAUGUAUAUACGAGGAAGUUGUG [JMF's solution 81] (Eterna round: R96, puzzle: Same State NG 1) | – | – | – | – | 37.6 nM | –
4 | AUAAGUUUGAUGCUCGUCUCUCCGUACAGACAUGAGGAUCACCCAUGUAGCCGGGAAGUAGCCCGACCAGUAUGGCC [Isriinus] (puzzle: Sensor for hsa-mir-208a) | 72.2 nM | 23.9 nM | 93.7 nM | – | – | –
5 | ACAUGAGGAUCACCCAUGUAUAGAAUUGAAUGUUAAGAUACGUAGGAUAUCGAGAUUAGUAUGAUCGAGAAGGACGAUUAGAUA [JR_SSNG3_Sub064] (Eterna round: R96, puzzle: Same State NG 3) | – | – | – | 12.6 nM | 16.6 nM | 20.3 nM
6 | AGGCUCAGACGAGGAUAUACGUGGUCACAUGAGGAUCACCCAUGUCUCGAGCUUCGGCUCGAGGCGUAGAAGGCGUCUGAGCCA [SSNG2/6-A1] (Eterna round: R96, puzzle: Same State NG 2) | – | – | – | 152 nM | 201 nM | 268 nM
7 | AAAUAAAACACAGGAUAUGCAACCAAAACGGCGGCAGAAGGGUGAGACAUGAGGAUCACCCAUGUACACGUCCCACGGACGUGC [Arorraed] (Eterna round: R96, puzzle: Same State NG 1) | – | – | – | 392 nM | 9.43 nM | 88.4 nM
8 | UCUUGGUUUUUGCUCGUUUUUUGUGUUGAACAUGAGGAUCACCCAUGUAUUGUACGGUCCAGUUUAAUAAUGGUCCA [JMF 6] (puzzle: Sensor for hsa-mir-208a) | 25.9 nM | 14.4 nM | 26 nM | – | – | –
9 | GUAGCAUACCGAGGAUAUUCAUAUUAUAACAUGAGGAUCACCCAUGUUGGCCGAUUACGGCCUUGGGAGAAGGCGGAAUGCUAC [Xeonanis - 20 Mod18] (Eterna round: R96, puzzle: Same State NG 2) | – | – | – | 15.8 nM | 74.1 nM | 84.3 nM
10 | UAUAAACAUGAGGAUCACCCAUGUAAUAAUAUGGGAGGAUAUCAGAAUUUAUUUAUUUAAUGAGAAGGCCUAAUAU [Mat - Same State 1 - Mod of Eli - D67] (puzzle: Same State 1) | 34.5 nM | 210 nM | 562 nM | – | – | –
11 | AACAGUCGGCGAGGAUAUGGACGUACAGGUUUGCCUGUGCGGCUCACAUGAGGAUCACCCAUGUUCUAGAAGGCGCCACUGAGA [Lausrein] (Eterna round: R96, puzzle: Same State NG 2) | – | – | – | 19.9 nM | 48.8 nM | 81.2 nM
12 | GGAUCCGGCACUGAGGAUAUUCAUAUUUAAACAUGAGGAUCACCCAUGUAGGCCAGAAGGCCUUGGGAGAAGGCAGGUCGGCUCG [salish99_ss2_r3_082] (puzzle: Same State 2) | 27.6 nM | 268 nM | 484 nM | – | – | –
13 | CUGUGUUGCGGGCAGGAUAUGUACUUGAGUACAUGAGGAUCACCCAUGUGCGGGUGUUUCACCCGACAGAAGGGCCAAUCGCGAC [JL-ss2-3.23 ViennaUCT mod] (puzzle: Same State 2) | 68.8 nM | 311 nM | 1520 nM | – | – | –
14 | GUACAUAUCAGAGGAUAUCACGUCGAAUAGACGUGAGAAGGCUGAUCACACAUGAAUAUUAAUACAUGAGGAUCACCCAUGUAC [SSNG1/13-A1] (Eterna round: R96, puzzle: Same State NG 1) | – | – | – | 16.9 nM | 24.5 nM | 31.2 nM
15 | GAGUGACAUGAGGAUCACCCAUGUAGAAUAGAACAAGGAUAUGUGGAAGGCGGAGGAGAGACAGAAGGUGUUGGAG [JR_SS1_Sub056] (puzzle: Same State 1) | 47.9 nM | 51.2 nM | 88 nM | – | – | –
16 | CAGCGCUGUUGAGAGGAUAUGCGGUGAUGGACAUGAGGAUCACCCAUGUUAGCGACAGCAUUACGGCAGAAGGCUUCACAGCUGC [Soteed Omei mod 17] (puzzle: Same State 2) | – | 39.3 nM | – | – | – | –
17 | GCUAGAAUUAAAGCCAACAUGAGGAUCACCCAUGUAUGUUGGCAGGAUAUCGUUUGCAAAGCAAACGAGAAGGGCCAUACUAGC [Mat - Same State NG 3 - JL Mod - D22] (Eterna round: R96, puzzle: Same State NG 3) | – | – | – | 33.4 nM | 87.5 nM | 118 nM
18 | CGCGCUCCGGUAGGAUAUGAGGUGCCGUAGGGACCCGCCUACGGACAUGAGGAUCACCCAUGUCCUCAGAAGGACCGGGCGUGA [Soenonorma] (Eterna round: R96, puzzle: Same State NG 2) | – | – | – | 15.1 nM | 29.6 nM | 35.5 nM
19 | GGUCCCUACGCACAGGAUAUUCUUUUGGCAACAUGAGGAUCACCCAUGUGUGCCGAUCAUGGUUAGAAGAAGGGUGGUAAGGACG [Qucesosobe] (puzzle: Same State 2) | 9.76 nM | 10.8 nM | 12.2 nM | – | – | –
20 | CGUACACAUGAGGAUCACCCAUGUCAGAUUUGGUCAGGAUAUGGGCGGCAUCCGCUAUUGCCAGAAGGGACUGUUG [JR_SS001_Sub703] (Eterna round: R96, puzzle: Same State 1) | – | – | – | 156 nM | 43.4 nM | 64.8 nM
21 | UAGGGACAUGAGGAUCACCCAUGUGCCUCAUAUGGAGAAACUCAGGAUAUGCUGAGGAUCACCCGGCAGAAGGGAGAUUUGACC (Eterna round: R96, puzzle: Same State NG 3) | – | – | – | 24.2 nM | 37.1 nM | 53.2 nM
22 | AGAGCCGGCACUGAGGAUAUUCAUAAUAAAACAUGAGGAUCACCCAUGUAGGCCAGAAGGCCUUGGGAGAAGGCAGGUCGGCUCA [Mat - Same State 2 - Mod of UCT - D67] (puzzle: Same State 2) | 16.7 nM | 176 nM | 269 nM | – | – | –
23 | CUCAAAACAAGUUGCAGUGUUCGUCUUUAACAUGAGGAUCACCCAUGUAAUAACCCGGUGGAAGCGCUCGGGCCACC [Gereerle] (puzzle: Sensor for hsa-mir-208a) | 25.7 nM | 15.5 nM | 26.1 nM | – | – | –
24 | GCGGAACCUGACAUGAGGAUCACCCAUGUUCCGGAAACGGCACAGGAUAUCUGUCCGAAAAGGUCAGAGAAGGGUGAAAACCGC [Fiskers NG3ss - 96] (Eterna round: R96, puzzle: Same State NG 3) | – | – | – | 269 nM | 714 nM | 719 nM
